Test results taken from US9725517B2, “Humanized monoclonal antibodies against the extracellular domain of human death receptor 5” (Institute of Basic Medical Sciences, Chinese Academy of …, priority 2012, dated 2017).

Tested on: Jurkat, HCT116, BEL-7402 and H460 cancer cells
Test: CCK-8 cytotoxicity assay of killing cancer cells
Type: cell-based, human
Details: summary statement; leukemia, liver cancer, colon cancer, lung cancer cells
Experimental: The assay was carried out in 96-well cell culture plates. Various concentrations (0, 0.5, 1, 2, 4, 8 μg/ml) of humanized anti-human DR5 monoclonal antibodies AD10, AD14 and AD15 were separately added into to human T-cell lymphocytic leukemia cells Jurkat (ATCC, TIB-152), colon cancer cells HCT116 (ATCC, CCL-247), liver cancer cells BEL-7402 (cell bank, Shanghai Institutes for Biological Sciences of Chinese Academy of Sciences, TCHu 10) and non-small cell lung cancer cells H460 (ATCC, HTB-177) in logarithmic growth phase, for 24 hours; parental murine anti-human DR5 monoclonal antibody (AD5-10) and human-mouse chimeric antibody zaptuximab were used as controls. According to the protocol of CCK-8 cytotoxicity detection kit (Dojindo, Gaithersburg, Md.), CCK-8 agents were added and incubated for 2 to 4 hours, the OD value was measured at 450 nm wavelength in micro-ELISA plate detector. The OD value in cell-free well was set as blank control “0”. Cell survival rate=OD value in treated well/OD value in untreated well.

B1: zaptuzumab: intact humanized monoclonal antibody against DR5 expressed in HEK293 cells and purified by affinity chromatography (antibody, chains of the INN, looked up, V domains shown)
VH: QVQLVQSGSELKKPGASVKVSCKASGYTFTDFSMNWVRQAPGQGLEWMGWINTETGEPTYADDFKGRFVFSLDTSVSTAYLQISSLKAEDTAVYYCARIDYWGQGTTVTVSS
VL: DIVMTQSPLSLPVTPGEPASISCRSSQSLVHSNGNTYLHWYLQKPGQSPQLLIYKVSNRFSGVPDRFSGSGSGTDFTLKISRVEAEDVGVYYCFQSTHVPHTFGQGTKLEIK
  killing activity to cancer cells in vitro: strong killing activity to various cancer cells
